Data published in PMC2817471.
Like-named read-outs stand apart in the source and are kept apart here.

T1: XPD (Sulfolobus acidocaldarius, UniProt Q4JC68 1-551)
T1 sequence: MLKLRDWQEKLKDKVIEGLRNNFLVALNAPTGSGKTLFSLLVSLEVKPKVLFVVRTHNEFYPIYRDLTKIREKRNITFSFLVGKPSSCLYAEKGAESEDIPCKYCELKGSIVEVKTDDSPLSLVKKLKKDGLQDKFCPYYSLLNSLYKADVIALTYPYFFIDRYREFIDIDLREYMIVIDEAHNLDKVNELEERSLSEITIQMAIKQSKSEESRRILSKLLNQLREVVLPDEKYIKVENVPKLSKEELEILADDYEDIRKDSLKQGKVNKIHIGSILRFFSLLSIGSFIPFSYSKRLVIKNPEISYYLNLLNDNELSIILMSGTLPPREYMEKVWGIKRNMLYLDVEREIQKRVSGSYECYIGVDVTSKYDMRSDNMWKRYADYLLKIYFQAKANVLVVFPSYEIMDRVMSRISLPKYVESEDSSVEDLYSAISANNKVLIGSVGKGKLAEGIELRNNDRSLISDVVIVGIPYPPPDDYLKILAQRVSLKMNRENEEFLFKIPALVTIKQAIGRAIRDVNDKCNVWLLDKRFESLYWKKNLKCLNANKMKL


Columns and labels:
XPD [1] = target: T1, XPD; experiment: ITC
XPD [2] = target: T1, XPD; experiment: ITC; remark: listed apart in the source

Row | Binder | Kd (XPD [1]) | Kd (XPD [2])
1 | TTTTTTTT (ssDNA) [ITC-T8] | > 40 µM | 
2 | TTTTTTTTTTTT (ssDNA) [ITC-T12] |  | 5.6 µM
